US20230054634A1 (INSTYTUT BIOLOGII DO WIADCZALNEJ IM MARCELEGO NENCKIEGO …, published 2023)
Where no end group is shown, it is not given here. The star is where a group is joined. Biotin = O=C1N[C@H]2[C@H](CS[C@H]2CCCCC(=O)*)N1

Legend:
[1] = target: T1, recombinant human GM-CSF protein, Myc-tagged/His-tagged (human, UniProt P04141 18-144); test: ELISA, GM-CSF coated, biotin-labelled peptide, anti-biotin detection
T1 construct: also called Granulocyte Macrophage Colony Stimulating Factor; CSF2; not shown: Myc tag and His tag from the expression vector
T1 sequence (P04141 18-144): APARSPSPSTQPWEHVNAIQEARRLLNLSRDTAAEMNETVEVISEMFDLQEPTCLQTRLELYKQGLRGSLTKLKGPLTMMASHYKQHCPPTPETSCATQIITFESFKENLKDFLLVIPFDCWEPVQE
Protocol: (§1) Next, unbound proteins were washed out, then the wells were blocked with 5% BSA (bovine serum albumin) in saline and peptides labeled with N-terminal biotin (purchased from GenScript) were added. […] HRP catalyzes the conversion of chromogenic substrates into colored products. The amount of bound peptide was proportional to the amount of the colored product, and it was measured using a spectrophotometer.

[2] = target: T1, recombinant human GM-CSF protein, …; test: SPR (BIAcore 3000), GM-CSF immobilised, peptide injected
[3] = target: T1, recombinant human GM-CSF protein, …; test: ELISA, GM-CSF coated
Protocol: as §1

[4] = target: T1, recombinant human GM-CSF protein, …; test: ELISA on GM-CSF, relative to G7
[5] = target: T1, recombinant human GM-CSF protein, …; test: ELISA, GM-CSF coated, biotin-labelled peptide
Protocol: as §1
(SEQ ID NO: 1). […] These peptides, labeled with a N-terminal biotin, were purchased from GenScript.

Biotin-NHEVEDEIIWEEFT [G25 peptide]
binding result [1]: binds

Biotin-IERFNPPSNVTVRC [G3 peptide]
binding result [2]: binds

NTTHCLVRWKQPRT [G5 peptide]
binding result [2]: binds

RWKQPRTYQKLSYL [G6 peptide]
binding result [2]: binds

Biotin-ADVRILNWSSWSEA [G15 peptide]
binding result [2]: binds

Biotin-WSSWSEAIEFGSDD [G16 peptide]
binding result [2]: binds

VLGFLFKRFLRIQR [G21 peptide]
binding result [2]: binds

RFLRIQRLFPPVPQ [G22 peptide]
binding result [2]: binds

YQKLSYLDFAYQLD [G7 variant (A10)]
binding result [3]: binds

B1: G7 variant (A11) (peptide)
peptide: YQKLSYLDFQAQLD
notes: ELISA as for the biotin-labelled peptides
binding result [3]: binds

B2: G7 variant (A12) (peptide)
peptide: YQKLSYLDFQYALD
notes: ELISA as for the biotin-labelled peptides; also called Al2
binding result [3]: binds

B3: G7 variant (A13) (peptide)
peptide: YQKLSYLDFQYQAD
notes: ELISA as for the biotin-labelled peptides; also called Al3
binding result [3]: binds

B4: G7 variant (A14) (peptide)
peptide: YQKLSYLDFQYQLA
notes: as for B1
binding result [3]: binds

B5: G7K2 (peptide)
peptide: YKKLSYLDFQYQLD
notes: also called G7 variant with lysine in position 2
Relative binding [4]: 2

YQKLSYLDFQKQLD [G7K11]
Relative binding [4]: 108

YQKLSYLDFQYQKD [G7K13]
Relative binding [4]: 108

B6: G7 variant (A16) (peptide)
peptide: KQPRTYQKLSYLDFQYQLD
notes: ELISA as for the biotin-labelled peptides; also called W2
binding result [3]: binds

KYQKLSYLDFQYQLD (also called G7K-1 variant) [G7K-1]
Relative binding [4]: 95

YQKLSYLDFQYQKDK [G7K15]
Relative binding [4]: 60

Biotin-HSVKIRAADVRILN [G14 peptide]
binding result [1]: binds

B7: G7 N-terminal (peptide)
peptide: Biotin-YQKLSYL
notes: also called N-terminal (YQKLSYL); short variant of G7
binding result [5]: no binding

B8: G7 C-terminal (peptide)
peptide: Biotin-DFQYQLD
notes: also called C-terminal (DFQYQLD); short variant of G7
binding result [5]: no binding

B9: G7 central portion (peptide)
peptide: Biotin-LSYLDFQ
notes: also called central (LSYLDFQ); short variant of G7
binding result [5]: no binding
